Laboratory results as given in a protein production outcome set (Wang et al. 2014).

Assay: label from the status in PepcDB records
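Further: failed if final PepcDB status was selected cloned or expressed and not failed if soluble or beyond.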

Row | Sequence | protein production
1 | MESVRIEQMLSLPAEVSSDNLESAERGASAAQVDMGPHPKVAAEGPAPLPTREPEQEQSPGTSTPESKVLLTQADALASRGRIREALEVYRQLSERQQLVAEQLEQLVRCLAEKVPQGEALAPAPPDEGSTASGTVAAEETGAAAAAAATEVWDGFKCRKCHGFLSDPVSLSCGHTFCKLCLERGRAADRRCALCGVKLSALMVATGRARGARRAGQQPPPPLRVNVVLSGLLGKLFPGPARASQLRHEGNRLYRERQVEAALLKYNEAVKLAPNDHLLYSNRSQIYFTLESHENALHDAEIACKLRPMGFKDNLELPHCSSQEEAAARGDGSSLMDPAKVKGDGQQHHMKDQEEEEEKWDATSPKAASSKTGKCQEKKRKHCQIESQEETGMPNKASKQDPPTDQGDKPALSLPLASFDASDLECALCMRLFYEPVTTPCGHTFCLKCLERCLDHNAKCPLCKDGLSQCLASRKYSKNVIMEELIAKFLPEELKERRKLYEEEMEELSNLNKNVPIFVCTMAYPTVPCPLHIFEPCYRLMIRRCIETGTRQFGMCLGDPVKGFAEYGCILEIRNVQFFADGRSVVDSIGKRRFRVLHQSQRDGYNTADIEYIEDQKVQGEDCAELMGLHNCVYQQASLWFHSLKLSLKNRILNHFGPMPEKDADPQMNPNGPAWCWWMLAVLPLESRAQLPFLAMRSLKDRLNGIRRVLAFISRNQN | failed
2 | MTNKQKMRKRRRALLCVFAAFAFSFNPLGKIAYATPKQDTSVVNYVKTQEETSNSIQNQPISSYWYPEDLLKWSANNDKDAKFNKSTVPLAKRVEKDKLDTINDTQNKDVKVVAISIMNANTSGNPSQGSNKFSANTFSYWQYIDKLVYWGGSAGEGLIVPPSPDVTDSAHRNGVPVLGTVFFPMTAHGGKMEWLNKFLEKDANGNFPIVDKLIEVAENYGFDGWFINQETEGTEQEPLTPEHAKLMQELIKQFKAKSNGKFEIMWYDSMTKDGDMDWQNALTDKNEYFLLDGDKNKVADSIFLNFWWTYNSLKDKDLLRVSNEKAKEIGINPYDLYAGIDVQANGYKTPLRWTHYQRDDQAPFTSLGLYCPSWTYFDAKTPEQFQENENRLWVNEHGDPSKTTNAQGVDWRGISTYSVEKSAVTSLPFTTNFNIGNGYDFYVDGNKVSTQDWNNRSLNDIMPTYRWVISNEENNNVKADIDYTTAYYGGNSIKLSGYLAEGKASTIKLYSSDLTLPEGVQFTTTAKANGNTVDMDLVLTFHDGTETTISADKKLGTDWTKLNYDVSPYVGKSIKTISYKLSSPVCVDNFSANLGNITIEIPNSSSKVNISNAKLNDVDFKDGIYAGARLSWSPEGNSSDVHHYEIYRVMNDGTKVLLGATPNTSYYVSDLRRNDKETNTNFEVVAVNKNFNRGNSQSINMEWPAYPAPTASFKVSNTLIAPGQSVTFTNTSSEVTEEIQWKFPGAKVESSTEQNPTVTYEKEGVYPVILTAKNSSGENVETKTELITVTNAAKDGLVNLSLNKSAKASSFVNENEAPQYALDGNVKTKWCAVGSAPHTLTIDLGDIKTIGELEISHAEAGGESSGMNTKAYSFEVSNDGENFTPVLNVDDNTKAISNDAFPVTKARYVRLNIIQPTQGADSAARIYEVAVKGLDGNVDLPPVMNPDDSNKPVDPDQPENPDKPNNPEKPENPDNPGNTDKPVNPDQPGDSEKPETPNKPGDTENPEGKPANPSDLVSKEITENSALLSWKAPEKVESIQEYVVYQDGKEIGRVPTDKTPLEFLVKDLKPNTKYNFEVSSIDKDGKESDKISLEVTTKKKDNGNLPNTGSPIGAGALATTGIALSSAGVYLTLKKKRK | failed
3 | MYVTTGTNDILLTINDYVNKETASYQLTDISNNTLISEIIEKIKVLKNYTYSSTDLVLYFARVECKLSEKLSTYNKSNRKTIKLELYLSKLITINVRTLQSCGTGTSRCIPFWSFCFRQNIKIKIIDTCEVRVLKQKIYNLTDESTSIPVENIVLLYKGAPLNNFLTLKESELIDNCRIDYFVPLCYIYKKKKEESDEDEDENEEKLKEHTKSEDKKVDTQQNENVKSENVNNENVKNENVNNENVKNENVNNENVNNENVNIENVKNDNNDNAKKC | failed
4 | MPTTSRPALDVKGGTSPAKEDANQEMSSVAYSNLAVKDRKAVAILHYPGVASNGTKASGAPTSSSGSPIGSPTTTPPTKPPSFNLHPAPHLLASMQLQKLNSQYQGMAAATPGQPGEAGPLQNWDFGAQAGGAESLSPSAGAQSPAIIDSDPVDEEVLMSLVVELGLDRANELPELWLGQNEFDFTADFPSSC | failed
5 | MRRQAEAYKAQLAAMVESSDDAIIVKDLNAIITSWNAGAERIFGYQASEITGSSILALIPPERHEEEKGIMSLVKSGNRVDHFETMWWGKGKKPIDVSVTTSAVKDSDGNIVGISQIARDLEHHHHHH | failed
6 | MGYSRSREIRRWEMRKMKAAGLSVEEAYSDEEGGLVPDLVYKESSSEFLGNKVFDPVLRNKIEIEKPGTEISAVAKRGSVFLSVHPRSYVAPSASGEVDREVSQRLPIESFRDDLMEFVGKHRVIVLVGETGSGKSTQVPKYLYQEGYGDKGIIGCTQPRRAAAISLASTLKREMGCAVGYSIRFDSTTTQDTKIRYMTEGILLQELLADKMLRRYSVVILDEAHERTTNLDISMGLLKLALKERDDLRIIIMSATIEAQKLCNYFGCPAFNIEGRSYPVETRYLSVNVDDYVEWTVKKILYIHENCGEGDILVFVTGRDDVEGVVGIVNHCIRNKCFGEGSEGGRGLKVLPFYSQLPEEMQNRVFQAEKDVRKCIVSTNVAETSLTIPNIGYVIDTGLQKISVYSYDTGESLVTVPISRANADQRTGRAGRTRPGVCYRMYTADTYENDMLPSPVPEIQRTNIHNVVLLLLKHGVHDILGFDFVDRPSEELIQGALLGLHRLGAVCSRGLLTKVGKEMSELRLDPPLARMVLGAAGYGAVNEIASIASMLSVHEVFHRDFDKSSPLCHQGCDFLTLLNIFNAFIRQKNRSEWCNKMKVSEHALKRATETKRAVLMSLREMGVPISSTRSLDKIQRCIISSVHYNVARRRGKGYVCLSNFRACMVHPSSVLADSYSQYIIFYKHLSTRAEYMYCCSNISPQVILEEAGCYYRDRNGVFNIQKHPVIEDGLDREHNPFGSACSLTGARMPGKIALDENLYDRFEKWNESEESDEEPPKKIRRTRI | failed
7 | MMNNVKYLSFALILAFSACKSGSASSQEPSEKQDTVKIFNLPQIPVVLNTVEQRTDYMVKHYWDRFDFSDTTYINQAEVPEQAWVDYCDLLEHVPLPVAQTAMKETFNRAEKNRKMLHFFEELADKYLYDPNSPMRNEEFYIPVLEALIASPALDETAKIRPQARLELAQKNRLGTKALNFTYTLDSGVKGTLYQFPAEYTLLFINNPGCHACAEMIEGLKASPVINGFTAAKKLKVLSIYPDEELDEWKKHRNDFAKEWTNGYDKELVIKNKNLYDLRAIPTLYLLDKNKTVLLKDATLQKVEQYLAERG | failed
8 | MTSTETPLNSPAAAADRRRWFALAIVMTAAFMDLVDVTIVNIAIPSIQRDAGASWGQIQWITAGYALAFAAGLITGGRLGDIHGRKRLFLIGIGGFTLASALCGFAANPEMLVASRILQGGMAAMMVPQVLSIVHATFPAHERGKVFGLFGAIVGLGAVSGPLLGALLTEWNLFGLEWRPIFLINLPVGVAGLILGRRFITESKAPRALKLDLVGVALVTLGLLMLLYPLTRGRELGWPLWGHVSMAGALVVFAALVAYERRKTARDGSPLVELSLFKVKSFAAGIAVQTVFGIALGIFFLVWTLYMQMGLGWSALRAGLTGVPFSIAVSAAAGMSVQLLVPRFGRKVLQAGALLMALGVLLYIWESDRYGMAIASWQMALPLVVMGAGMGFIVAPLTDAVLSEVPREHSGSASGLINTVQQMGNALGLGLVSVVFFGEIGDRLTRAQVGPAFAHAFQHALGWVAVVLAVIFLLMFALPKRPAQHVEGAGAADTLGEKEPVLVP | failed
9 | MDLFNAPIAPLQVLHDQQGGVRYWPHLLPPALAQEAFDALRDDADWRSQRREMYDRVVDVPRLLASYRLDDALPAGLPLQRLLDAVQAVLPAPYNAVGLNLYRDGRDSVAMHHDALHTLVAPHPIALLSLGTPRRMQLRAKDGSTRAVALELAPGSLLAMSHASQHTHVHGIAKSTRAVGERISVVFRVRPAQRMAAGQHGPHWEPVQS | failed
10 | MNSPWETESGDRRVESGAGVSVGGRGQSRPRSCSIKAAEGKKGRSSACAPRWRLRSALLREDRCRSAPRIPRGCFSPRAPWRGGNSCAHCPRPRSGRPETGRAWGSRRAPRRGRPPAHGAPRPLPGLPRAASDRWAPARTSLIFILCPRGCLLLSARTLGIPWQPTSLRSRPTSLSPASCATQRASSWACSSASIETRPLNFFISYDAPPLRTRTIKLLVTFLVEEVSRNGAAKQEQFQETLYFTHLPRDKRLQKELLALQNDPPPGMTLNEKSVQNSITQWIVDMEGAPGTLYEGEKFQLLFKFSSRYPFDSPQVMFTGENIPVHPHVYSNGHICLSILTEDWSPALSVQSVCLSIISMLSSCKEKRRPPDNSFYVRTCNKNPKKTKWWYHDDTC | failed
11 | MTDLEHAVESNRRAWDASADSHLRGGGWQELSLAVQETGFSCLDETLAGVLRNLDLAGKAAVQVGCNNGREVLSLYAFGVARAVGIDQSAAFLAQARQLAERSPHQPRFVEANAYELPAELNGQFDLLLITIGVLNWMPDIARFFASVSGLLKPGGQLAIYETHPFLEMLEPESERPFELRNDYFTDTPHVSREAIVYEGSGSDTGIASYWYVHPLGDILGGLLGAGLRLSHFKEYPHSNREELYDLYEDGPLAIPMCYTLVAVKA | failed
12 | MTRQRIAIDMDEVLADTLGAVVKAVNERADLNIKMESLNGKKLKHMIPEHEGLVMDILKEPGFFRNLDVMPHAQEVVKQLNEHYDIYIATAAMDVPTSFHDKYEWLLEYFPFLDPQHFVFCGRKNIILADYLIDDNPKQLEIFEGKSIMFTASHNVYEHRFERVSGWRDVKNYFNSIEK | failed
13 | MKISEVLVKVGDGVHTLLLDRPIVRDGRKFDAPLLWMVVLMTAFGLLMIYSASVYLASKEGGDQFFYLTRQAGFVVAGLIASGFLWFLCRMRTWRRLVPWIFALSGLLLVAVLIAGREINGATRWIPLGPLNFQPTELFKLAVILYLASLFTRREEVLRSMESLGWQSIWRGTANLIMSATNPQARRETLEMYGRFRAIILPIMLVAFGLVLIMVQPDFGSFVVITVITVGMLFLAGLPWKYFFVLVGSVLGGMVLMITAAPYRVQRVVAFLDPWKDPQGAGYQLTHSLMAIGRGEWFGMGLGASLSKRGFLPEAHTDFIFAIIAEEFGFFGMCVLIFCYGWLVVRAFSIGKQSRDLGLTFNAYIASGIGIWIGIQSFFNIGVNIGALPTKGLTLPLMSYGGSSVFFMLISMMLLLRIDYENRQKMRGYRVE | failed
14 | MKLKTRICKKNSIRNSEKVEESSKSTTNCPLSCVDWSSNEEIYFVSDDHQIFKWSDVSRDSVEVAKLPDDFVPTDMHWLLLGGRSSGGGKGSDTLLICSNDGRFVILNKSARVERSISAHAAAISSGRWSPDGAGLLTAGEDGVIKIWSRSGMLRSTVVQNEESIRCARWAPNSNSIVFCQGGHISIKPLAANSKIIRWRAHDGLVLSLSWSTQSNIIASGGEDFRFKIWDAQGANLFTSAAEEYAITSVAFNPEKDYLLWSYNTARFSSPRVGSIFNLSWSADGTQATCGTSTGQLIVAYAIEQQLVSGNLKATSKSRKSITLKDIATGTQDILDFPQRVVSFGLGYGHLVVATTNQVHIYNEKYINTPIIIDGRNDTRVIEVGKKYFMILDALSIWVYTYTGRLHLNPRYPGSQAQIPLLTWRSLSLGLDVLAIRDNSDPTVLHLFDLIPGASRQYDPHSLRAKQQLVQIAACRAGSPEDQFVAFIDSNRELFVSESRNLNSERIDEIYKIGTQLTAIMWASETNILVGVHDSCYSIWYCPGEGASDPTIIALTTITLDTTEFGKHITIESFEESVLTFRSAGALLPVNVNMYCEILHRALLEGQWQQALKICRMGQHSSLWATLAAVATRKHQLQISEEAYSAALQIDKVSYLQHLKALTPSSAEQMAENSLMLGRMLEAETILLHGKKIEQAVGLALRMHNWRRALEISQKHKGEQPELVPRVLQERRKYLKALQREEWDPLYLPLVAKEEADNTSE | failed
